The numbers were not newly measured in article PMC3924328, “Structure of the S100A4/myosin-IIA complex” (BMC Structural Biology, 2013), which cites them from elsewhere.

The target of the data set is myosin-IIA 1904-1927 (Homo sapiens) (UniProt P35579). The data set is described as follows: fluorescence anisotropy. In general terms: In fluorescence polarisation assays a small probe gives low polarisation when free and higher when bound to something large.
Chain of myosin-IIA 1904-1927 (Homo sapiens) (P35579 1904-1927): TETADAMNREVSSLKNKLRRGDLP

Chain of S100A4 (P26447 2-101): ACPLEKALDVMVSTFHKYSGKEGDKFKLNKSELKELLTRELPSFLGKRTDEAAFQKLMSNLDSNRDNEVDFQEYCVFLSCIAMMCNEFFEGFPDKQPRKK

For orientation: Kd means the concentration at which binding is half-saturated. Take S100A4 (from UniProt P26447): the Kd was 260 nM.
